The supplement of paper PMC10126150
± gives the standard deviation of the averaged measurements.
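Also: ATP exposure 15 min at 22 °C before imaging.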

Each sequence was assayed on ATP (assay: switch fluorescence ratio, 500 uM ATP over buffer (Cy3 cluster intensity, sum of 5 cycles each) (fold (ratio)); higher = stronger signal-on switching upon ATP binding; sequences stand for … in TCGTCGGCAGCGTCAGATGTGTATAAGAGACAGTTTTTTTTTTTTTTTTTTTTTTTTT…TC). Details: aptamer strand: ATP DNA aptamer (quencher-CACCTGGGGGAGTATTGCGGAGGAAGG + anchor), 100 nM annealed; ATP concentration: 500 uM.
Method in brief: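 For every switch-domain sequence, the fluorescence ratio is the mean of per-cluster values, each being summed target-cycle Cy3 intensity over summed buffer-cycle Cy3 intensity. Clusters outside 100-1000 RFU were excluded. On a modified Illumina MiSeq flow-cell, the Cy3-labelled switching-strand clusters were annealed to 100 nM quencher-labelled ATP aptamer, imaged in selection buffer and then after 15 min with 500 uM ATP at 22 °C. Five such cycles were run, with NaOH stripping and re-annealing between them.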
TTATTCCGGT gave a switch fluorescence ratio of 1.006 ± 0.0024. With TTATTCGATT the switch fluorescence ratio was 0.982 ± 0.019. With TTATTCGGCA the switch fluorescence ratio was 1.005 ± 0.0036. With TTATTCTTTT the switch fluorescence ratio was 1 ± 0.026. For TTATTGATCT, the switch fluorescence ratio was 1 ± 0.065. TTATTGCGGA gave a switch fluorescence ratio of 0.994 ± 0.022. Sequence TTATTGCTCG has a switch fluorescence ratio of 0.989 ± 0.021. TTATTGGGCT gave a switch fluorescence ratio of 1.01 ± 0.013. TTATTGGGTG gave a switch fluorescence ratio of 1.04 ± 0.024. TTATTGTAAG showed a switch fluorescence ratio of 0.9675 ± 0.006. TTATTGTGTA was tested, and the switch fluorescence ratio was 0.979 ± 0.025. TTATTTAGCG showed a switch fluorescence ratio of 1.03 ± 0.029. TTATTTAGTT showed a switch fluorescence ratio of 1.01 ± 0.017. TTATTTCCAC gave a switch fluorescence ratio of 0.986 ± 0.013. With TTATTTCGTG the switch fluorescence ratio was 0.998 ± 0.03. TTATTTCTTG was tested, and the switch fluorescence ratio was 0.994 ± 0.046. In the case of TTATTTGATA, the switch fluorescence ratio is reported as 1 ± 0.034. TTATTTGCGC was tested, and the switch fluorescence ratio was 1.024 ± 0.0036. TTATTTTATG gave a switch fluorescence ratio of 0.994 ± 0.027. With TTATTTTTCG the switch fluorescence ratio was 1.02 ± 0.018. TTATTTTTGG gave a switch fluorescence ratio of 0.989 ± 0.027. TTCAAAAAAA gave a switch fluorescence ratio of 0.97 ± 0.026. Work on TTCAAAACGT yielded a switch fluorescence ratio of 1.04 ± 0.017. Sequence TTCAAAATTT has a switch fluorescence ratio of 0.982 ± 0.015. TTCAAACATC was tested, and the switch fluorescence ratio was 1 ± 0.015. In the case of TTCAAATTGG, the switch fluorescence ratio is reported as 1 ± 0.043. TTCAAATTTT was tested, and the switch fluorescence ratio was 1.01 ± 0.015. For TTCAAGGAGG, the switch fluorescence ratio was 0.978 ± 0.016. For TTCAAGGGGG, the switch fluorescence ratio was 1 ± 0.018. In the case of TTCAAGGTCA, the switch fluorescence ratio is reported as 1.02 ± 0.028. TTCAAGTGGG gave a switch fluorescence ratio of 0.9848 ± 0.0028. Sequence TTCAATAGAA has a switch fluorescence ratio of 0.998 ± 0.0029. For TTCAATGCTC, the switch fluorescence ratio was 2.17 ± 0.82. In the case of TTCACAAGGT, the switch fluorescence ratio is reported as 1.004 ± 0.0049. TTCACATACG gave a switch fluorescence ratio of 1.51 ± 0.03. In the case of TTCACGAAGA, the switch fluorescence ratio is reported as 1 ± 0.0015. For TTCACTGGGG, the switch fluorescence ratio was 1.05 ± 0.012. Work on TTCACTTTTG yielded a switch fluorescence ratio of 1.01 ± 0.028. For TTCAGAAACA, the switch fluorescence ratio was 1.04 ± 0.037. TTCAGAGAAA gave a switch fluorescence ratio of 0.98 ± 0.034. TTCAGAGGCG gave a switch fluorescence ratio of 1.04 ± 0.011. For TTCAGCAAT, the switch fluorescence ratio was 5.31 ± 0.8. In the case of TTCAGCCCGG, the switch fluorescence ratio is reported as 0.986 ± 0.056. Work on TTCAGCTACA yielded a switch fluorescence ratio of 1.02 ± 0.029. In the case of TTCAGCTGAG, the switch fluorescence ratio is reported as 0.9861 ± 0.0091. TTCAGGAGGG showed a switch fluorescence ratio of 0.991 ± 0.042. With TTCAGGCCTT the switch fluorescence ratio was 1.04 ± 0.059. In the case of TTCAGGCTTT, the switch fluorescence ratio is reported as 1.01 ± 0.011. With TTCAGGTACT the switch fluorescence ratio was 1.06 ± 0.019. TTCAGTCCGG showed a switch fluorescence ratio of 1.01 ± 0.026. Sequence TTCATATACT has a switch fluorescence ratio of 1.06 ± 0.034. TTCATATCAT showed a switch fluorescence ratio of 1 ± 0.03. In the case of TTCATCGAGC, the switch fluorescence ratio is reported as 1.019 ± 0.0076. TTCATCGGCA gave a switch fluorescence ratio of 1.35 ± 0.47. TTCATCTGCA gave a switch fluorescence ratio of 2.19 ± 1.5. TTCATGATTT gave a switch fluorescence ratio of 1.034 ± 0.0045. TTCATGGTAT gave a switch fluorescence ratio of 0.991 ± 0.031. TTCATTATGG gave a switch fluorescence ratio of 1.004 ± 0.0049. TTCATTATTT was tested, and the switch fluorescence ratio was 1 ± 0.024. Sequence TTCATTGGTT has a switch fluorescence ratio of 0.998 ± 0.038. In the case of TTCATTTTGA, the switch fluorescence ratio is reported as 0.967 ± 0.015. With TTCCAGGGGA the switch fluorescence ratio was 1.08 ± 0.11. Work on TTCCAGGGTG yielded a switch fluorescence ratio of 1.71 ± 0.92. In the case of TTCCATGGCA, the switch fluorescence ratio is reported as 1.037 ± 0.0056. Sequence TTCCATTTGT has a switch fluorescence ratio of 1.031 ± 0.0019. Work on TTCCCAGCAG yielded a switch fluorescence ratio of 1.68 ± 0.65. With TTCCCCCCAA the switch fluorescence ratio was 1.76 ± 0.74. TTCCCGGGGG gave a switch fluorescence ratio of 1.06 ± 0.067. Sequence TTCCCGGGGT has a switch fluorescence ratio of 1.2 ± 0.32. TTCCCGGTGT showed a switch fluorescence ratio of 1.75 ± 0.041. TTCCCTAATG showed a switch fluorescence ratio of 1 ± 0.033. TTCCCTGAGA was tested, and the switch fluorescence ratio was 0.977 ± 0.025. TTCCGAAATG was tested, and the switch fluorescence ratio was 1.63 ± 0.17. TTCCGAGTTC gave a switch fluorescence ratio of 1.15 ± 0.13. TTCCGGCGCT gave a switch fluorescence ratio of 3.42 ± 1.1. In the case of TTCCGGGAAA, the switch fluorescence ratio is reported as 0.968 ± 0.031. Work on TTCCGGGCTA yielded a switch fluorescence ratio of 1.47 ± 0.62. With TTCCGGTCCG the switch fluorescence ratio was 1.16 ± 0.18. TTCCGGTTTG showed a switch fluorescence ratio of 0.999 ± 0.054. With TTCCGTTAGA the switch fluorescence ratio was 1.06 ± 0.017. In the case of TTCCGTTGAA, the switch fluorescence ratio is reported as 1.05 ± 0.044. For TTCCTAGGGA, the switch fluorescence ratio was 0.994 ± 0.046. In the case of TTCCTCTCGG, the switch fluorescence ratio is reported as 1.17 ± 0.18. With TTCCTTCGAT the switch fluorescence ratio was 1.51 ± 0.062. TTCCTTGCGG gave a switch fluorescence ratio of 1.08 ± 0.057.
